Results: article PMC7987032 (medRxiv, 2021)

Target: SARS-CoV-2 RBD (SARS-CoV-2 (Wuhan-Hu-1), UniProt P0DTC2)
Experiment: BLI

B1: CV2-75 (antibody, V domains shown)
VH: QVQLQESGPGLVKPSETLSLTCTVSGGSISSYYWSWIRQPPGKGLEWIGYVYYSGSTNYNPSLKSRVTISVDTSKNEFSLKLSSVTAADTAVYYCASSQRPDGNLYYFDYWGQGTLVTVSS
VL: SYVLTQPPSVSVAPGQTARITCGGNNIGSKTVHWYQQKPGQAPVLVVYDDSDRPSGIPERFSGSNSGNTATLTISRVEAGDEADYYCQVWDSSSDHYVFGTGTKVTVL
  binding result: binds
